# Reference: publication PMC4361737 (The Journal of investigative dermatology, 2013)
# B1: Fras1 CSPG (domain or fragment)
# chain: TPSLHVNGSLTLGIGSMKPLDFSLLNIQHQDGRVEDLLFHVVSTPTNGQLLLSRNGKEVQLEKAGHFSWKDVNEKKVRFVHSKEKLRKGYFSLKISDQQFFSEPQLINIQAFSTQAPYVLRNEVLHVSKGERATITTQLLDIRDDDNPQDVVVNVLDPPLHGQLLQMPPAPAASIYQFHLDELSRGLLLYAHDGSDSTSDIIVFQANDGHSFQNILFHVKNIPKNDRALRLVTNSMVWVPEGGMLKITNRILKAQAPGVRADDIIYKITHSRPQFGEVVLLMNLPADSPAGPAEEGHHLPDGRMATPISTFTQQDIDDGVVWYRHLGAPTQSDSFRFQVSSATSAQEHLESHMFNIAILPQAPEAPKLSLGTSLHMTAREDGLSVIQPQSLSFVKAESPSGKIIYNITVPLHPNQGIIEHRDRPHSPIQYFTQEDINQGQIMYRPPVAPPHLQEIMAFSFAGLPESVKFYFTVSDGQHTSPEMALTIHLLHSDLQPPAFQVKAPLLEVSPGGRTSLGLQLLVRDAQVVPEELFFQLQKSPQHGMLVKYTAKSSVTMAAGDTFTYDEVERNVLQYVHDGSSAWEDSLEISVTDGLTVTTSEVKVEVSPSENRGPRLAPGSSLSMTVASQHTAIITRSHLAYVDDSSSDPEIWIRLSSLPLYGVLFRSSGPDMDELSGDSNFTMEDINKKNIRYSAVFETDGHSVTDGFHFSVSDMDGNHVDNQVFTITVTPAENPPHIIAFADLITVDEGGRAPLSLHHFFATEDQDNLQDDAVIKLSALPKYGCIENTGTGDRFGPGANSELEASFPIQDVLENYIYYFQSVHESIEPTHDVFSFYVSDGSGRSEIHSINITIERKNDEPPRMTLRPLGVRLSSGVAISNSSLSLQDLDTPDNELIFVLMKKPDHGHLLRRSTASDPLENGTVLDQGSSFTYQDVLAGLVGYLPGDIYMAVDEFRFSLTDGLHVDTGRMEIYIELPSTNIPHLAINRGLQLSAGSVARITEQHLKATDTDSEAGQVVYIMKEDPGAGRLLMAKADNLEQISVRGPIRSFTQADVSQGQIEYSHGPGEPGGSFAFKFDVVDGEGNKLADQSFSIGVLEDKSPPVVITNRGLVLDENSVEKITTAQLSATDQDSKPTELIYRITTQPQLGHLEHVASPGIQISSFTQADLASRNVQYVRSSGTGKQSDAFSFVLSDGLHEVTQTFPITIHPVDDARPLVQNRGMRVQEGVRKTITEFELKAVDVDTEAESITFTIVQPPRHGTIERTARGQRFHQTSSFTMEDIYQNRVSYSHDGSNSLKDRFTFTVSDGTNPFFIIEEGGEEIMTAAPQQFHVDILPVDDGTPRIVTNLGLQWLEYMDGKATNLITKKELLTVDPDTEDSQLIYEVTTGPMHGYLENKLQPGRAAATFTQEHVNLGLIRYVLYEEKIQKVMDSFQFLVKDSKPNV
# B2: AMACO P2 (domain or fragment)
# chain: SSSALCTTADPDCRVEPHPCERRTLETVRELAGNALCWRGSRQADTVLALPCPFYSWKRVFQTHPANCYRTICPGPCDSQPCQNGGTCIPEGVDRYHCLCPLAFGGEVNCAPKLSLECRIDVLFLLDSSAGTTLGGFRRAKAFVKRFVQAVLREDSRARVGIASYGRNLMVAVPVGEYQHVPDLIRSLDSIPFSGGPTLTGSALLQVAEHGFGSASRTGQDRPRRVVVLLTESRSQDEVSGPAAHARARELLLLGVGSEILQAELVKITGSPKHVMVHTDPQDLFSQIPELQRRL
# modifications: two unusual glycan chains
# Assays:
# [1] = target: B2; test: SPR
# [2] = target: B1; test: SPR
Kd [1] [nM],Kd [2] [nM],Binder
42,–,B1
–,151,B2
